Here are results for two molecules from publication PMC9897464 (2022).

In assay [1] the target is biotinylated Cg1735ΔCD (residues 20 to 386) (Corynebacterium glutamicum ATCC13032). The experiment in a line: BLI; biotinylated Cg1735ΔCD immobilised on streptavidin biosensors; Cg1735CD 20 to 0.3125 μM or Cg1604 200 to 3.125 μM; 25 °C; HEPES 25 mM pH 7.5, NaCl 150 mM, glycerol 5%, BSA 1 mg/mL; steady-state, one-site model; apparent Kd. In general terms: BLI is a label-free optical method that tracks binding on a fibre tip over time.

Assay [2] deals with T1, biotinylated Cg1735ΔCD (residues 20 to 386) (Corynebacterium glutamicum ATCC13032, biotin (EZ-Link NHS-PEG4-Biotin, 20 molar excess; sites not stated)).
T1 chain: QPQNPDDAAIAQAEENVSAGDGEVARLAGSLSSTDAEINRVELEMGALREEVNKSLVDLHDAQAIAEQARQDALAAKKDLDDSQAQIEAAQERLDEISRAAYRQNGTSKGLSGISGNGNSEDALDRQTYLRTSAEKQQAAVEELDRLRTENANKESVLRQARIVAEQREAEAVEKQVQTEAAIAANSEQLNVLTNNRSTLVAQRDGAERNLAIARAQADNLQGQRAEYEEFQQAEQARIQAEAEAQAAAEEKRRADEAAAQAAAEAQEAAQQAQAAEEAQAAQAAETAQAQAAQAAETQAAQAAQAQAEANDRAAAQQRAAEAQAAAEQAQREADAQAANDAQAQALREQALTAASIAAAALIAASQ
The assay is described as follows: BLI.

Assay [3] deals with His_SUMO_Cg1735CC1 (CC1 domain, residues 20 to 238) (Corynebacterium glutamicum ATCC13032). The experiment in a line: BLI; His_SUMO_Cg1735CC1 immobilised on Ni-NTA biosensors; Cg1735CD 20 to 0.3125 μM; 25 °C; HEPES 25 mM pH 7.5, NaCl 150 mM, glycerol 5%, BSA 1 mg/mL; steady-state, one-site model; apparent Kd.

Consider “Cg1604 (globular periplasmic domain, residues 36 to 295) (domain or fragment)”, for which, in assay [1], the Kd amounted to 56 µM.

B1: Cg1735CD (catalytic domain, residues 460 to 600) (domain or fragment)
chain: DRSAQIETVIARAMSQLGVQYAWGGGNANGPTLGIRDGGVADSYGDYNKVGFDCSGLTLYAFAGVGISLPHYTGYQYQHGTKVSPSEMQRGDLIFYGPGASQHVAIYLGDGQMIEAPNSGSVVKISPVRWSGMTESVVRLI
Regarding B1, the figures for the Kd in assay [2] and in assay [3] were 1900 nM and 1200 nM, respectively.
